Experimental findings from the domain aggregation screens of Martell et al. (2025) are described below.

The data set can be described thus: soluble fraction after stress (log2 fold change); higher = more stays soluble; pooled small domains, quantitative proteomics. The settings on record: stress: 50 degC. The gist of the method: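 The stress applied to every library was 50°C. These custom libraries of small protein domains were pooled and measured at high throughput with quantitative proteomics as the read-out. Aggregation propensity is expressed as the base-two logarithm of the fold change in how much of each protein remains soluble. The higher the value, the more of that protein stays in solution.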
As for “HMQNRIVNTTQGLAADKRGLLVADETGHTTRPGIFASGDVVNGARTVVEAVAHSKIVAESMHQYMQ”, the “soluble fraction (log2)” value was ≥ 0.62.
As to “HMKTGIIYGVNGPVIYLKGDTGFKISEMVYVGPEKLVGEVIGLKKHMTTVQVFEETTGLKPGETVIGTGDA”, the “soluble fraction (log2)” value is -0.486.
For the sequence “HMNLEQTIVLGKRLFNNALDTLGKKQRSIKNKQINKLLELLNFKNMNELYQSIGVGDKNPLLMAQMML”, the “soluble fraction (log2)” value is -0.458.
With “HMSHGYVELKAENNDALISALENHTWFENIKLDPETNLVKAILTKPIEAENLNKMLFEKGIILSHLVKRK”, the “soluble fraction (log2)” value was -0.0853.
With “HMDITKPKISFEPGEMVRVVDGPFNDFSGVVEEVNYEKSKVRVAVLIFGRSTPVELQFNQIEK”, the “soluble fraction (log2)” value was -0.252.
As to “HMSPRQVTAVRSGSPMPVLPGEDWRLYDASGALVARGSGAAPIPKSTGLLRLNSEGLDGLADRWIWVL”, the “soluble fraction (log2)” value was -0.255.
Take “HMEKAYVWTDTRTFDVQNYIGKKKSEVKNDQYGFEFLGEGDYVIDQLPRVGEQIEEGQKVKIMLGNQQEI”: the “soluble fraction (log2)” value came out at 0.0468.
Consider “HMDETFTITFDPNGGTLNGSKTKTVSLGDIVYGKLPTASKTGYSFIGWFTEKEGGEQISSATKIIASDLTL”, for which the “soluble fraction (log2)” value came out at 0.0253.
“HMILNPADEEKMNLINFELQQRGLEINDKEMQYIFTHHSRDLNSLLNLAEKLDEISHQEKKSISINLIKKI”: the “soluble fraction (log2)” value is -0.0218.
The value for “HMESYTGLAVTEDDDGWSNVRSGNSTSYSILFKIYAGEKFNILSNDGKWSYIDFNGRKGYIHNSIIRKY” was -3.87.
As for “HMGMNSGQADFRGISLALSVDAEAEAQRLFTALADGGQVQMPLSKTFFSPAFGMVADRFGVGWMVVTN”, the “soluble fraction (log2)” value came to 0.247.
The value for “HMPTEPTARELEVTTLLAQGLSNREIAGALFISEHTVRNHLGHVFSKLGVSSRTQAVVRAGQLGWLR” was -2.14; that for “HMIDAHTALLAKRLEAKGMLPLTDKSSAEEIYAEFGISKKAFKKALGALYKERLVRIGEDGVVWI” was -1.27.
The value for “HMRLDVALRGVLLDGDPTQSRAFVLVSGTTSTYRLGETVQSAELVAINADTITLRTETGLHVIGFDGLI” was -2.48; that for “HMHAPKIIVLTINPDKIRDVIGPGGKMIKSIVAATGVKMDVEDDGKIHISSSDQKAADEAIRMINEITAEA” was 0.0184.
On to “HMEKNKERIAFLKKRLEMYYEAEEKILQGQSYTIGSRTLTRTSLANVQSKIKELESEISALETRGN”, for which the “soluble fraction (log2)” value is -0.57.
Then “HMRPEFVVALSGADLGKLHRLYELGEVLSREDDAEGVTHAVLRVPDKHEHAFHAEFPQARPM”, with 0.378.
Then “HMAGTELASIKEIQSLVDRSEEALSARNFFWPKDKSESMLLSFRNMFSRLKLTKMDVQIFHGIFKVMEKS”, with -0.0116.
Consider “HMGIQQNHMTLHARSVASSANVPAEHFDTLVEKLIESGDIKVWKAREILMNLSRQHEEILDES”, for which the “soluble fraction (log2)” value came out at 0.0119.
“HMQPPVDGNEIMEIFGIKGSPVIGVIKSTIKNAILDGIIAPNDREAALELMFRIADENGLKPVVTQTQ”: the “soluble fraction (log2)” value amounted to 0.101.
For “HMTPEPVTMYITSLTEFRSEPNTEAGIIKLLDAYEEVEMIESRGEWSKISYGDQIGYILSEFLTAENRT”, the “soluble fraction (log2)” value is -0.0121.
In the case of “HMKIDANTFTSIEKQLFVLLSKTPTPMGSIFVALAKEDKEAVWEVIHFLEAENRLIMNEDGTIQL”, the “soluble fraction (log2)” value is -1.39.
As to “HMAQTEIPYSEFLREVGNGQIKSVIIEGSEITGFYKTSGTSFNVVAPDDPKLVERLMDQGVEVRAQPT”, the “soluble fraction (log2)” value came out at 0.0919.
With “HMPKHFIDFSEGEVVSITDGPFKGFDGAISEIDNQKGKVKVMVSMFGRDTSVELDALQVKKV”, the “soluble fraction (log2)” value is -0.107.
“HMPGDIRKAAILLMSLPREQAAQVLARLDPKQVEAVTIEIARLGTVTPDEQEQALKEFSQANPA”: the “soluble fraction (log2)” value turned out to be 0.0798.
As for “HMEPTAEQLKAIRQFASVNGRSWKSELRYLWETGAYHRAALGGADPGYLQQVRNQFGPGWLRAFKISK”, the “soluble fraction (log2)” value is -0.852.
Then “HMFPELEPDEQLIADLLRKTNNLQINIITVRTGLPINRVTALLFQMEMKGVVRPLAGGTYHLLV”, with -0.108; and “HMDIAYFSNAELNDAFIQFLNMRQEAGKQLNGYQIQILTEKLERVADTDEDRISAVKNAIAGGWSNFYPPK”, with -0.272.
The value for “HMSIELEISADGNNYRVSGLSDGEDVRVYSVSGVQVFSGKAQGGEVVIPADNWNKGIYVISAGGSSVKVL” was -0.196.
The value for “HMKRDEYIAQLKKYLKRLPKKEYDSAIEYFTEYFDEAGPERELEVIQELGQPKEAAKEMLLQLLNE” was 0.0905; that for “HMERLTVVPELLKRSLSEAQPLVTSARLRLEVSGGAPEDTSRAIVVGQKPPPGTRVQVGTTVIVTVQIQRP” was -0.0498; that for “HMSDEEAISKLPGVGPAILEKLKEAGYNDIMTIAVDSPKNLAELAEIGEPTAAKIIAAAKKAAD” was 0.0933.
As to “HMSLTTKSVEETLGITRQTLHNWIKEGLLPAPKKDFRNWYIWSDEDLENLRNIIEQKTLINNKKQAV”, the “soluble fraction (log2)” value was -0.133.
The value for “HMAAKADAVKKAIAAIGKVDASEDSKAKVEAARKAYAALTEDQKKLVEASQLKLLTEAEAAYQQAVEESKK” was 0.0525; that for “HMATEVEVPDVVGRQMALATQLLEARKLRVNVAEIYDEKTPPGQVVSQSPEAGSSVKEERVVTIYVSR” was -0.0321.
The value for “HMGGGVERLTPRQREVLGYMAEGRSNSWIAGAIGFSEKAVVQHTSKIYDALGLAVDADDHRRVLAVLRYLT” was -1.44; that for “HMTVSGNIAGDYKDYLPQKTDVINGMTVTYRMVDDAVYLASWKHAGQNHVFLFNDPVSVERAREMI” was -0.577.
In the case of “HMEQPPVPSVSITAALGSAVARRLAPHGFQKMPDLVDAYRAGKLAQISGIGGTTLDLIREWLTANARQQ”, the “soluble fraction (log2)” value was determined as 0.0154.
The value for “HMTKVIEFLVSDEEHGVRADKAFVSHNQKLSRSYFKKLILNGNLYINNKVNLDPSYKLIKGSTVRIILPE” was -2.07; that for “HMEYKYNPADYPYPLNEDIEKVYSAYREKSIGKLEAAVQNLYYTLKQARRDNILSDVKVNEMQQYFLALRN” was -0.324.
For “HMGRYATVPDVVGSTPEVARELIRSEGLRYVLSEETVYSDSDTGTVGRTDPESGTRMSADDEVVVYLS”, the “soluble fraction (log2)” value was found to be 0.0355.
Then “HMDNITIYSSNGKIYVNAIGGEKIELFNITGQKVAEKVAVSGINVLDAVYDITLVKVGSKVVKVV”, with -0.123; and “HMPPDIKVVGVTVASDPRASFAMLSSNGKTLSYRVNDLIEGTEYHLIKVEAAAITIATAGGQSTQIAF”, with -0.585; and “HMSNIAQRLVLENALAKLNQEQQTIIDLRIIKGYSVAETARLLGKTESAVRTAQYRALKELAGILEED”, with -0.86.
Turning to “HMSPLPDRESLGAIEKLISLLGSSEWTVREKATRELGAFGYLARPVLQRELATSGDPEVSRRLERILSNL”, the “soluble fraction (log2)” value was -0.332.
Then “HMDRPLRTKEHFARFAGEQVVVKTSSPIDGRSSFTGTLEGMEGDDVIVEVDGSRIAIGYSLIKRAHVVG”, with 0.117; and “HMGRPWRIGDVVNVSRPTGDGGGFTKGLITRIYPTTVQVTWNPDLQHARPWTTMEKKQYLIFVYHDDE”, with -2.86.
Then “HMNNIGENIKKYRTKQGLSQEDFAKKSGVKYTTLTKIESGVIKKPSVLVMAKIAKALGVNIEELI”, with -0.0879; and “HMGLSENALAMLKQQETVLIRLIDGRGNQGALASINLIVSRILNLDIVDRTPEDLLRVIASEGEQND”, with -3.78.
Then “HMAPGASEVPDLTSLPAREALLRLTKLGLLPEMEGTGRLVRQQPAAGTRVPKGSKVHLVFEPG”, with 0.0613; and “HMSREMIKSELESISGLGKSGIEKLYTHFINIENIKSASLENIRNIPGISYKVADNIYKHFH”, with -0.195; and “HMEEPEYELLRQAVLALPEKYRLPIHLYYYEEYSVREIAEILQRKESAVQTQLQRGREKIRRSLTEKGVS”, with -0.77.
Turning to “HMGPGSYVVNVKPYAYVSINGRDYGRTPVGPIRLDPGTYKVVFTHEHRPSFSRTIVVEAGRETFETFPYPG”, the “soluble fraction (log2)” value is -0.29.
On to “HMIERKLRKKEHFIASVGEKVKIKNFATETYKGELISADNEKVVVETEFGKEEITYDNILAAATYFE”, for which the “soluble fraction (log2)” value was -0.135.
The value for “HMSQTELIIVEEEMDGERLDAFLAEQVEQLSRSAVKNLINEGQVLVNGAKQKASYHVREGDEISIEIPEPQ” was 0.0254; that for “HMVSNRMVYSDFQQKWINNQVESINVNADKMTIEVTTQDEKKYTVYAPSSMIEFLNEQYPKDDIKIEYVAP” was -0.147; that for “HMDEDTWKLYKRAYKKYYARYMKGNMSEEAFKTWAAQAARDRDAAIEQVKAALDENLKAQVIERLKEELNR” was -0.407.
Then “HMGPEAFPVPYIVDIELDRAIYVIEQSGFIVGQKLEANDDNVPRGFVISQNPAAGTKLGPNSVVDLVISSG”, with -1.02; and “HMQQPVAYSEFVQSVNDRQIREAQIQGERIVATDNNGNRMTVIWPENDTKLLDELVQNGVLTSIQE”, with 0.12.
Then “HMPTSILEKILNSAAEQFTRYGFKTITMDDIARHAGVSKKTLYQHFETKLDIIVAAVTHFHTMKF”, with -0.718.
“HMVETVQVVGAGQDIMPGSRINYSSLHYITVPRSYFHEDMFAKNNLVVGRIARAYVAKGEPLLAASLMPK”: the “soluble fraction (log2)” value is -2.54.
Take “HMERVIYLLNGREVPAAEIRAAEPEALTVDRFYSSENLPAEYRDRNPELVVAFTAEEPLRHY”: the “soluble fraction (log2)” value was 0.358.
Turning to “HMDISRMNLSQTERAVLSVLDSQPLHTEEIIASADLRAGAIHSALISLQLKGLIKQLPGNLYVK”, the “soluble fraction (log2)” value was -0.0722.
The value for “HMATVGENIRRYRKAQNLSAAKLAEKVGLTQGAILHYERGIRTPGISQLEKIAHALNVSPRM” was -0.0581.
Consider “HMDLVIALNSRIRVIREPFFGKLGTVIDLPHKLHKMESGTMTRVAKIKFDDRTEEIIPRTNLEVILS”, for which the “soluble fraction (log2)” value was -2.69.
The value for “HMDGVLVYKEGMTVADMATGLGKTIAQVVMKLMQLGIMANQNQSVDRETVELVALDFGYELKD” was -1.76; that for “HMNKYYQQLLQADPTGFIDPFKDLGTYDSRLNTFKEPVSELLNPFSGRPYSKIWQKRIETMREIFISYIKS” was -2.86; that for “HMFAATGTVNTEGSSLRLRAEASTSSSVLKQLSHGTQVDVLSGLVDGWYQVSYKGTTGYVSGEYLTVTE” was -0.451.
